Test results as given in PMC10666096 (Proceedings of the National Academy of Sciences of the …, 2023).

Target: the molecule itself
Assay: single-molecule photobleaching analysis

B1: Cyanine-5 labeled N43S Fluc-Bpe (natural protein, Bordetella pertussis)
chain: MLTYAPLNFIAIGIGATLGAWLRWVLGLKLNGAGWPWGTLTASLVGGYLIGVMVALIASHPEWPAWIRLAAVTGFLGGLTTFSTFSAETVDMLSRGVYATAAAYAGASLAGSLAMTGLGLATVRLLLC
modifications: Cy5 (Cyanine5-maleimide) on the cysteine of R128C
**Q.** B1 was tested. Which “stoichiometry N” value did it give?
**A.** Its value is 2.
